As usually defined, the Km is the concentration of substrate that gives half-maximal velocity.

Our source for the Km values is US6485941B1, “Inhibition of the carboxyltransferase component of acetyl-CoA carboxylase, and the use of such inhibition in anti-cancer and anti-lipogenic therapies” (Board of Supervisors of Louisiana State University and …, priority 2002, dated 2002).

Substrate in the data set: CC(C)(COP(=O)(O)OP(=O)(O)OC[C@H]1O[C@@H](n2cnc3c(N)ncnc32)[C@H](O)[C@@H]1OP(=O)(O)O)[C@@H](O)C(=O)NCCC(=O)NCCSC(=O)CC(=O)O
Description: Carboxyltransferase inhibition, assayed in the reverse direction with coupled spectrophotometric detection. To be noted: other: substrate of carboxyltransferase. It is filed as biochemical, E. coli.
Description: Carboxyltransferase was purified from a strain of E. coli that overexpresses the genes encoding the α and β subunits of the enzyme.
Carboxyltransferase was assayed in the reverse direction: the production of acetyl-CoA was detected by using the coupling enzymes malate dehydrogenase and citrate synthase, and the reduction of NAD^+ was measured spectrophotometrically by the method of C.
In Equations [1] and [2], v is the initial velocity, Vm is the maximal velocity, A is the substrate concentration, I is the concentration of inhibitor, Km is the Michaelis constant, Kis is the slope inhibition constant, and Kii is the intercept inhibition constant.
v=VmA/(Km(1+I/Kis)+A(1+I/Kii)) [2]
The activity of carboxyltransferase was measured in the reverse direction using malonyl-CoA and biocytin as substrates.

B1: carboxyltransferase component of E. coli acetyl-CoA carboxylase (Escherichia coli K-12) (protein)
chain 1: MSLNFLDFEQPIAELEAKIDSLTAVSRQDEKLDINIDEEVHRLREKSVELTRKIFADLGAWQIAQLARHPQRPYTLDYVRLAFDEFDELAGDRAYADDKAIVGGIARLDGRPVMIIGHQKGRETKEKIRRNFGMPAPEGYRKALRLMQMAERFKMPIITFIDTPGAYPGVGAEERGQSEAIARNLREMSRLGVPVVCTVIGEGGSGGALAIGVGDKVNMLQYSTYSVISPEGCASILWKSADKAPLAAEAMGIIAPRLKELKLIDSIIPEPLGGAHRNPEAMAASLKAQLLADLADLDVLSTEDLKNRRYQRLMSYGYA
chain 2: MSWIERIKSNITPTRKASIPEGVWTKCDSCGQVLYRAELERNLEVCPKCDHHMRMTARNRLHSLLDEGSLVELGSELEPKDVLKFRDSKKYKDRLASAQKETGEKDALVVMKGTLYGMPVVAAAFEFAFMGGSMGSVVGARFVRAVEQALEDNCPLICFSASGGARMQEALMSLMQMAKTSAALAKMQERGLPYISVLTDPTMGGVSASFAMLGDLNIAEPKALIGFAGPRVIEQTVREKLPPGFQRSEFLIEKGAIDMIVRRPEMRLKLASILAKLMNLPAPNPEAPREGVVVPPVPDQEPEA
notes: made in house; host or cells: E. coli overexpression strain (Blanchard et al. 1998; G. Waldrop, LSU)
For B1, the Km came out at 100 µM.
